Measurements taken from PMC13411919.

Biological target: trimeric BG505.SOSIP.664 T332N-avi-biotinylated protein (HIV-1 (BG505, clade A))
Experiment: native gel or EMSA; BN-PAGE (NuPAGE 4-12% BisTris) of the SEC trimer peak, before and after biotinylation

“trimeric BG505.SOSIP.664 T332N-avi-biotinylated protein (domain or fragment)” was tested. Which stoichiometry N did it give?
Its stoichiometry N is 3.
